For ten sequences, IC50 and Kd results are on record in the Immune Epitope Database (IEDB).

A value given as a limit tells only on which side of the number the result lay.

Experiment [1] addresses HLA-B*35:01. As to the kind of experiment: IEDB peptide-MHC binding, cellular MHC/competitive/fluorescence; ≥ and ≤ were set here for values at or beyond the usual limits of such assays. The settings on record: source organism: Influenza A virus H3N2.
In the next experiment the target is HLA-C*01:02. As to the kind of experiment: IEDB peptide-MHC binding, purified MHC/direct/fluorescence; filed as Kd, often an IC50 or EC50 that approximates it; ≥ and ≤ were set here for values at or beyond the usual limits of such assays. The following applies: source organism: Homo sapiens.
A further experiment deals with HLA-A*01:01. The description is as above. The settings on record: source organism: Camelpox virus M-96.
For experiment [2], the target named is HLA-A*02:01. Described as above. The following applies: source organism: Camelpox virus M-96.
In another experiment the target is HLA-A*26:01. Described as above. The settings on record: source organism: Variola virus.
A further experiment addresses HLA-A*31:01. The description is as above. The following applies: source organism: Camelpox virus M-96.
A further experiment addresses HLA-A*80:01. Described as above. The settings on record: source organism: Camelpox virus M-96.
For the next experiment, the target named is HLA-B*15:01. The description is as above.
Another experiment deals with HLA-B*15:09. The description is as above. The settings on record: source organism: Variola virus.
Another experiment concerns the target HLA-B*27:05. Described as above. The following applies: source organism: Camelpox virus M-96.
The target in experiment [3] is HLA-B*39:01. The description is as above. The settings on record: source organism: Variola virus.
The target in experiment [4] is HLA-B*40:01. Described as above. The following applies: source organism: Camelpox virus M-96.
The next experiment deals with HLA-B*46:01. The description is as above.
Another experiment concerns the target HLA-B*48:01. The experiment is described as above. The following applies: source organism: Camelpox virus M-96.
The target in experiment [5] is HLA-B*57:01. The description is as above. The settings on record: source organism: Camelpox virus M-96.
For a further experiment, the target named is HLA-B*58:01. The description is as above.
The target in the next experiment is HLA-A*03:01. As to the kind of experiment: IEDB peptide-MHC binding, purified MHC/competitive/fluorescence; filed as Kd, often an IC50 or EC50 that approximates it; ≥ and ≤ were set here for values at or beyond the usual limits of such assays. The following applies: source organism: Taterapox virus.
Experiment [6] has as its target HLA-A*11:01. The experiment is described as above. The following applies: source organism: Taterapox virus.
A further experiment concerns the target HLA-A*69:01. The experiment is described as above. The settings on record: source organism: Taterapox virus.
Another experiment has as its target HLA-B*15:17. Described as above.
The next experiment addresses HLA-A*32:07. Described as above.
The target of a further experiment is HLA-B*15:42. The experiment is described as above.
The target in experiment [7] is HLA-B*39:01. Described as above. The following applies: source organism: Escherichia coli B171.
Experiment [8] deals with HLA-B*40:01. The experiment is described as above. The settings on record: source organism: Escherichia coli B171.
The target in another experiment is HLA-B*40:13. The description is as above. The following applies: source organism: Escherichia coli B171.
For the next experiment, the target named is HLA-B*45:06. The experiment is described as above.
Another experiment has as its target HLA-B*83:01. The description is as above.
The target in the next experiment is HLA-A*32:15. Described as above. The settings on record: source organism: Mycobacterium tuberculosis variant bovis BCG str. Pasteur 1173P2.
The next experiment deals with HLA-A*68:23. The description is as above. The settings on record: source organism: Mycobacterium tuberculosis variant bovis BCG str. Pasteur 1173P2.
Experiment [9] deals with HLA-B*35:01. Described as above. The following applies: source organism: Mycobacterium tuberculosis variant bovis BCG str. Pasteur 1173P2.
Another experiment has as its target HLA-B*51:01. Described as above. The settings on record: source organism: Mycobacterium tuberculosis variant bovis BCG str. Pasteur 1173P2.
Experiment [10] deals with HLA-B*35:01. The experiment can be described thus: IEDB peptide-MHC binding, purified MHC/direct/fluorescence; filed as Kd, often an IC50 or EC50 that approximates it; ≥ and ≤ were set here for values at or beyond the usual limits of such assays. The settings on record: source organism: Salmonella enterica subsp. enterica serovar Typhi.
Another experiment deals with HLA-B*44:02. As to the kind of experiment: IEDB peptide-MHC binding, purified MHC/competitive/fluorescence; filed as Kd, often an IC50 or EC50 that approximates it; ≥ and ≤ were set here for values at or beyond the usual limits of such assays. The settings on record: source organism: Salmonella enterica subsp. enterica serovar Typhi.
Experiment [11] deals with HLA-B*57:01. The description is as above. The settings on record: source organism: Salmonella enterica subsp. enterica serovar Typhi.
In a further experiment the target is HLA-A*24:02. As to the kind of experiment: IEDB peptide-MHC binding, purified MHC/competitive/radioactivity; ≥ and ≤ were set here for values at or beyond the usual limits of such assays. The following applies: source organism: Homo sapiens.
Experiment [12] has as its target HLA-A*02:01. The experiment can be described thus: IEDB peptide-MHC binding, binding assay; filed as Kd, often an IC50 or EC50 that approximates it; ≥ and ≤ were set here for values at or beyond the usual limits of such assays. The following applies: source organism: Severe acute respiratory syndrome coronavirus 2 Indonesia/JI-ITD-12202V/2020.
The next experiment addresses HLA-B*15:02. The experiment can be described thus: IEDB peptide-MHC binding, purified MHC/direct/fluorescence; filed as Kd, often an IC50 or EC50 that approximates it; ≥ and ≤ were set here for values at or beyond the usual limits of such assays. The settings on record: source organism: Convict Creek 107 virus.
For experiment [13], the target named is HLA-A*02:01. The experiment can be described thus: IEDB peptide-MHC binding, purified MHC/competitive/radioactivity; ≥ and ≤ were set here for values at or beyond the usual limits of such assays. The following applies: source organism: Toxoplasma gondii.
Experiment [14] addresses HLA-A*11:01. The experiment is described as above. The following applies: source organism: Toxoplasma gondii.
In a further experiment the target is HLA-B*07:02. The description is as above. The following applies: source organism: Toxoplasma gondii.
Setting [15] is: source organism: Camelpox virus M-96.
[16] abbreviates: source organism: Escherichia coli B171.
Where [17] appears, read: source organism: Mycobacterium tuberculosis variant bovis BCG str. Pasteur 1173P2.
The mark [18] stands for this setting: source organism: Salmonella enterica subsp. enterica serovar Typhi.
[19] abbreviates: source organism: Convict Creek 107 virus.

By IC50 is commonly meant the concentration needed to halve the response being measured. LPFDKPTIM: in the experiment with HLA-B*35:01 [1], the IC50 is 1.6 µM.
Usually Kd stands for the free concentration of one partner at which half of the binding sites on the other are occupied at equilibrium, for simple one-to-one binding. Low readings indicate a tighter complex, high ones a looser complex. Take HLSSSQLQSL: the Kd with HLA-C*01:02 is ≤ 0.0001 µM.
For NTDAFSREY, the dissociation constant Kd with HLA-A*01:01 is 0.007 µM; with HLA-A*02:01 [2], ≥ 20 µM; in the experiment with HLA-A*26:01, 0.984 µM; with HLA-A*31:01 it was ≥ 20 µM; with HLA-A*80:01, 0.567 µM; in the experiment with HLA-B*15:01 (setting [15]), ≥ 20 µM. Moreover, the Kd with HLA-B*15:09, in the experiment with HLA-B*27:05, in the experiment with HLA-B*39:01 [3], in the experiment with HLA-B*40:01 [4], with HLA-B*46:01 (setting [15]) and in the experiment with HLA-B*48:01 was ≥ 20 µM throughout. In addition, the Kd with HLA-B*57:01 [5], with HLA-B*58:01 (setting [15]), with HLA-A*03:01, in the experiment with HLA-A*11:01 [6], in the experiment with HLA-A*69:01 and with HLA-B*15:17 (source organism: Taterapox virus) was ≥ 20 µM each time.
For the sequence HELSLFWPL, the dissociation constant Kd in the experiment with HLA-A*32:07 (setting [16]) was 0.0582 µM; in the experiment with HLA-B*15:42 (setting [16]), ≥ 5 µM; with HLA-B*39:01 [7] it was 0.0002 µM; with HLA-B*40:01 [8] it was 0.0025 µM; in the experiment with HLA-B*40:13, 0.0302 µM; with HLA-B*45:06 (setting [16]), ≥ 5 µM. For the same sequence, the Kd with HLA-B*83:01 (setting [16]) was ≥ 5 µM.
On to MTMITPPTF, for which the equilibrium dissociation constant (Kd) is 0.0513 µM in the experiment with HLA-B*58:01 (source organism: Mycobacterium tuberculosis); 0.0093 µM with HLA-A*32:07 (setting [17]); 0.0192 µM with HLA-A*32:15; 0.0044 µM with HLA-A*68:23; ≥ 5 µM in the experiment with HLA-B*15:42 (setting [17]); 0.111 µM in the experiment with HLA-B*35:01 [9]. In addition, the Kd with HLA-B*45:06 (setting [17]) was ≥ 5 µM; in the experiment with HLA-B*51:01, ≥ 20 µM; in the experiment with HLA-B*83:01 (setting [17]), ≥ 5 µM.
Take IVLLCYGGW: the equilibrium dissociation constant (Kd) with HLA-B*15:01 (setting [18]) was 6.18 µM; in the experiment with HLA-B*35:01 [10], 2.53 µM; with HLA-B*15:17 (setting [18]), 0.175 µM; in the experiment with HLA-B*44:02, ≥ 20 µM; in the experiment with HLA-B*57:01 [11], 0.497 µM.
With SFSTTINYTL, the IC50 with HLA-A*24:02 was found to be 0.8 µM.
On to YLQPRTFLL, for which the Kd with HLA-A*02:01 [12] stood at 0.075 µM.
On to VLFKTESGF, for which the equilibrium dissociation constant (Kd) is 0.0118 µM in the experiment with HLA-B*15:01 (setting [19]), 0.047 µM with HLA-B*15:02 and ≥ 20 µM with HLA-B*46:01 (setting [19]).
For the sequence AVVSLLRLLK, the results for the half-maximal inhibitory concentration (IC50) with HLA-A*02:01 [13], in the experiment with HLA-A*11:01 [14] and with HLA-B*07:02 were 11.3 µM, 0.0065 µM and ≥ 50 µM, respectively.
